Experimental data from patent US20150307617A1 (Genentech, published 2015).
Changes are numbered by the printed parent chain. Read-outs that look alike come from different tables or passages of the source.

B1: 3C8.gr.1 (antibody, V domains shown)
VH: EVQLVQSGAEVKKPGASVKVSCKASGYAFTNYLIEWVRQAPGQGLEWIGVINPGSGDTYYSEKFKGRVTITRDTSTSTAYLELSSLRSEDTAVYYCARDRLDYWGQGTLVTVSS
VL: DIQMTQSPSSLSASVGDRVTITCHASQDISSYIVWYQQKPGKAPKLLIYHGTNLEDGVPSRFSGSGSGTDFTLTISSLQPEDFATYYCVHYAQFPYTFGQGTKVEIK
notes: human Fc
B2: 3C8.gr.DQ (antibody, V domains shown)
VH: B1 VH with T58Q, I70L, R72A
VL: B1 VL with A43S, P44F, L46G
notes: also called 3C8.gr.5.DQ
B3: 3C8.gr.DA (antibody, V domains shown)
VH: B1 VH with T58A, I70L, R72A
VL: B1 VL with A43S, P44F, L46G
notes: also called 3C8.gr.5.DA
B4: 3C8.gr.11 (antibody, V domains shown)
VH: B1 VH with I70L
VL: B1 VL with L46G
notes: human Fc
B5: 3C8.gr.5.QG (antibody, V domains shown)
VH: B1 VH with I70L, R72A
VL: B1 VL with A43S, P44F, L46G, D56Q
B6: 3C8.gr.9 (antibody, V domains shown)
VH: B1 VH with I70L
VL: B1 VL with A43S
notes: human Fc
B7: 3C8.gr.10 (antibody, V domains shown)
VH: B1 VH with I70L
VL: B1 VL with P44F
notes: human Fc
B8: 3C8.gr.4 (antibody, V domains shown)
VH: B1 VH with R72A
VL: B1 VL with A43S, P44F, L46G
notes: human Fc
B9: 3C8.gr.8 (antibody, V domains shown)
VH: B1 VH with I70L
VL: B1 VL with A43S, P44F, L46G
notes: human Fc
B10: 3C8.gr.2 (antibody, V domains shown)
VH: B1 VH with R72A
VL: B1 VL
notes: human Fc
B11: 3C8.gr.6 (antibody, V domains shown)
VH: B1 VH with R72A
VL: B1 VL with A43S, P44F, L46G, T69A, F71Y
notes: human Fc
B12: 3C8.gr.3 (antibody, V domains shown)
VH: B1 VH with I70L, R72A
VL: B1 VL
notes: human Fc
B13: 3C8.gr.7 (antibody, V domains shown)
VH: B1 VH with I70L, R72A
VL: B1 VL with A43S, P44F, L46G, T69A, F71Y
notes: human Fc
B14: 1A7.gr.3 (antibody, V domains shown)
VH: EVQLVQSGAEVKKPGASVKVSCKASGYTFTDSYMSWVRQAPGQGLEWIGDMYPDNGDSSYNQKFRERVTLTVDTSTSTAYLELSSLRSEDTAVYYCVLAPRWYFSVWGQGTLVTVSS
VL: DIQMTQSPSSLSASVGDRVTITCRASQDISNYLNWYQQKPGKAPKLLIYYTSRLRSGVPSRFSGSGSGTDFTLTISSLQPEDFATYYCQQGHTLPPTFGQGTKVEIK
notes: human Fc
B15: 1A7.gr.2 (antibody, V domains shown)
VH: B14 VH with L70I
VL: B14 VL
notes: human Fc (captured by anti-human Fc)
B16: 1D2.gr.2 (antibody, V domains shown)
VH: EVQLVESGPGLVKPSETLSLTCTVSGFSLTDYGVLWIRQPPGKGLEWIGMIWSGGTTDYNAAFISRVTISKDTSKNQVSLKLSSVTAADTAVYYCVREEMDYWGQGTLVTVSS
VL: B14 VL with Y32F, R55H, H92N, P96W
notes: human Fc
B17: 1A7.gr.5′ (antibody, V domains shown)
VH: B14 VH
VL: B14 VL with A43T, P44V
notes: human Fc
B18: 1A7.gr.NADS (antibody, V domains shown)
VH: B14 VH with G56A, L70I, V72R
VL: B14 VL
B19: 1A7.gr.DA (antibody, V domains shown)
VH: B14 VH with S32A, L70I, V72R
VL: B14 VL
B20: 1A7.gr.SGDS (antibody, V domains shown)
VH: B14 VH with N55S, L70I, V72R
VL: B14 VL
B21: 1D2.gr.3 (antibody, V domains shown)
VH: B16 VH with I37V, I48L, V67L
VL: B14 VL with Y32F, R55H, H92N, P96W
notes: human Fc
B22: 1A7.gr.NADA (antibody, V domains shown)
VH: B14 VH with G56A, S58A, L70I, V72R
VL: B14 VL
B23: 1A7.gr.DANADA (antibody, V domains shown)
VH: B14 VH with S32A, G56A, S58A, L70I, V72R
VL: B14 VL
B24: 1A7.gr.4 (antibody, V domains shown)
VH: B14 VH with L70I
VL: B14 VL with A43T, P44V
notes: human Fc
B25: 1A7.gr.7′ (antibody, V domains shown)
VH: B14 VH
VL: B14 VL with A43T, P44V, T69K, F71Y, Y87F
notes: human Fc
B26: 1D2.gr.1 (antibody, V domains shown)
VH: B16 VH with K71V, V78F
VL: B14 VL with Y32F, R55H, H92N, P96W
notes: human Fc
B27: 1A7.gr.NGSS (antibody, V domains shown)
VH: B14 VH with D57S, L70I, V72R
VL: B14 VL
B28: 1A7.gr.6 (antibody, V domains shown)
VH: B14 VH with L70I
VL: B14 VL with A43T, P44V, T69K, F71Y, Y87F
notes: human Fc

Columns and labels:
[1] = target: T1, Human OX40 (Sino Biological Inc) (human, UniProt P43489 29-216, limits assumed); assay: SPR (Biacore), antibody captured via anti-human Fc, huOX40 analyte
T1 construct: Bought soluble protein used as SPR analyte; also called huOX40
T1 sequence: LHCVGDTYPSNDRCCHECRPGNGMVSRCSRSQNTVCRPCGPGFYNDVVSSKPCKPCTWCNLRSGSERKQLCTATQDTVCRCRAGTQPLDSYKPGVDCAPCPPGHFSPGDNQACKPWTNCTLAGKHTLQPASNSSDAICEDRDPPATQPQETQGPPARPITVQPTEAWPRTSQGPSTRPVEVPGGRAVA
Description: (§1) The binding kinetics of the anti-OX40 antibodies was measured using surface plasmon resonance (SPR) on a Biacore 3000 instrument (GE Healthcare). Anti-human Fc (GE Healthcare) was immobilized on a CM5 sensor chip via amine-based coupling using manufacturer provided protocol. Anti-OX40 antibody was captured at a level of 300-400 resonance units (RU). Antibody binding was measured to human OX40 (Sino Biological Inc). Two-fold concentration series of huOX40 with a range of either 18.75 to 300 nM or 6.25 to 200 nM were used for the experiments. Sensorgrams for binding of OX40 were recorded using an injection time of 2 minutes with a flow rate of 30 μl/min, at a temperature of 25° C., and with a running buffer of 10 mM HEPES, pH 7.4, 150 mM NaCl, and 0.005% Tween 20. After injection, disassociation of the ligand from the antibody was monitored for 600 seconds in running buffer. The surface was regenerated between binding cycles with a 40 μl injection of 3 M Magnesium Chloride.

[2] = target: T1, Human OX40 (Sino Biological Inc); assay: as above; remark: listed apart in the source
Description: as §1
Variants were tested by Biacore as described above to evaluate binding kinetics and in co-stimulation assays to determine biological activity.

| Binder | Kd [1] [nM] | koff [1] [s⁻¹] | kon [1] [M⁻¹ s⁻¹] | Kd [2] [nM] | koff [2] [s⁻¹] | kon [2] [M⁻¹ s⁻¹] | fold loss of binding affinity (against 1A7.gr.1) [2] [fold] | binding result [1] |
| --- | --- | --- | --- | --- | --- | --- | --- | --- |
| B1 | 6.49 | 0.00267 | 412000 |  |  |  |  |  |
| B2 | 8.12 | 0.00309 | 381000 |  |  |  |  |  |
| B3 | 12.9 | 0.00502 | 388000 |  |  |  |  |  |
| B4 | 2.86 | 0.000917 | 321000 |  |  |  |  |  |
| B5 | 1.17 | 0.000534 | 457000 |  |  |  |  |  |
| B6 | 4.28 | 0.00173 | 404000 |  |  |  |  |  |
| B7 | 2.84 | 0.00108 | 382000 |  |  |  |  |  |
| B8 | 2.2 | 0.000923 | 420000 |  |  |  |  |  |
| B9 | 2.16 | 0.000709 | 329000 |  |  |  |  |  |
| B10 | 5.48 | 0.00255 | 466000 |  |  |  |  |  |
| B11 | 3.08 | 0.00122 | 395000 |  |  |  |  |  |
| B12 | 3.94 | 0.00196 | 498000 |  |  |  |  |  |
| B13 | 1.41 | 0.000685 | 486000 |  |  |  |  |  |
| B14 | 0.525 | 0.000243 | 462000 |  |  |  |  |  |
| B15 | 0.524 | 0.000233 | 444000 |  |  |  |  |  |
| B16 | 55.9 | 0.0178 | 319000 |  |  |  |  |  |
| B17 | 1.77 | 0.000492 | 278000 |  |  |  |  |  |
| B18 |  |  |  | 0.442 | 0.000121 | 275000 |  |  |
| B19 |  |  |  | 0.259 | 8.32e-05 | 321000 |  |  |
| B20 |  |  |  | 0.993 | 0.000228 | 230000 | 2 |  |
| B21 | 59.5 | 0.0163 | 273000 |  |  |  |  |  |
| B22 |  |  |  | 0.355 | 0.000108 | 304000 |  |  |
| B23 |  |  |  | 0.557 | 0.000215 | 387000 |  |  |
| B24 | 0.472 | 0.000163 | 345000 |  |  |  |  |  |
| B25 | 0.36 | 0.000145 | 401000 |  |  |  |  |  |
| B26 |  |  |  |  |  |  |  | binds |
| B27 |  |  |  | 0.311 | 0.000108 | 349000 |  |  |
| B28 | 0.177 | 6.93e-05 | 391000 |  |  |  |  |  |
